Test results as given in patent publication US20230140797A1 (published 2023).
Substitutions are numbered along the chain they refer to.

B1: IL6R-BP199/IL6R-L (antibody, human IgG1, kappa)
heavy: QVQLQESGPGLVKPSETLSLTCAVSGHSISHDHAWSWVRQPPGEGLEWIGFISYSGITNYNPSLQGRVTISRDNSKNTLYLQMNSLRAEDTAVYYCARSLARTTAMDYWGEGTLVTVSSASTKGPSVFPLAPSSKSTSGGTAALGCLVKDYFPEPVTVSWNSGALTSGVHTFPAVLQSSGLYSLSSVVTVPSSSLGTQTYICNVNHKPSNTKVDKKVEPKSCDKTHTCPPCPAPDLLGGDSVFLFPPKPKDTLMISRTPEVTCVVVDVSHEDPEVKFNWYVDGVEVHNAKTKPREEQYNSTYRVVSVLTVLHQDWLNGKEYKCKVSNAALPRPIEKTISKAKGQPREPQVYTLPPSRDELTKNQVSLTCLVKGFYPSDIAVEWESNGQPENNYKTTPPVLDSDGSFFLYSKLTVDKSRWQQGNVFSCSVMHEALHNHYTQESLSLSP
light: not shown
B2: human IgE (hIgE) (antibody)
heavy: QVQLVQSGAEVKKPGASVKVSCKASGYTFTDYEMHWVRQAPGQGLEWMGALDPKTGDTAYSQKFKGRVTLTADKSTSTAYMELSSLTSEDTAVYYCTRFYSYTYWGQGTLVTVSSASTQSPSVFPLTRCCKNIPSNATSVTLGCLATGYFPEPVMVTWDTGSLNGTTMTLPATTLTLSGHYATISLLTVSGAWAKQMFTCRVAHTPSSTDWVDNKTFSVCSRDFTPPTVKILQSSCDGGGHFPPTIQLLCLVSGYTPGTINITWLEDGQVMDVDLSTASTTQEGELASTQSELTLSQKHWLSDRTYTCQVTYQGHTFEDSTKKCADSNPRGVSAYLSRPSPFDLFIRKSPTITCLVVDLAPSKGTVNLTWSRASGKPVNHSTRKEEKQRNGTLTVTSTLPVGTRDWIEGETYQCRVTHPHLPRALMRSTTKTSGPRAAPEVYAFATPEWPGSRDKRTLACLIQNFMPEDISVQWLHNEVQLPDARHSTTQPRKTKGSGFFVFSRLEVTRAEWEQKDEFICRAVHEAASPSQTVQRAVSVNPGK
light: DVVMTQSPLSLPVTPGEPASISCRSSQSLVHSNRNTYLHWYLQKPGQSPQLLIYKVSNRFSGVPDRFSGSGSGTDFTLKISRVEAEDVGVYYCSQNTHVPPTFGQGTKLEIKRTVAAPSVFIFPPSDEQLKSGTASVVCLLNNFYPREAKVQWKVDNALQSGNSQESVTEQDSKDSTYSLSSTLTLSKADYEKHKVYACEVTHQGLSSPVTKSFNRGEC

Key:
[1] = target: human FcγRIa extracellular domain with C-terminal His tag (human, UniProt P12314 16-292); experiment: SPR Biacore, amount bound per captured antibody
[2] = target: T1, human FcγRIIa type R extracellular domain with C-terminal His tag (human, UniProt P12318 34-217); experiment: SPR Biacore, amount bound per captured antibody
T1 sequence (looked up): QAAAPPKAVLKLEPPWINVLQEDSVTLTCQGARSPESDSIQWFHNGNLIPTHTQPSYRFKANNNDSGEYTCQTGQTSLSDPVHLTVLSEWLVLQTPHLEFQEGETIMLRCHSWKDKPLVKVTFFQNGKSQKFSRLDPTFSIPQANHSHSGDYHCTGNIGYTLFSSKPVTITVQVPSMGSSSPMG

[3] = target: T2, human FcγRIIa type H extracellular domain with C-terminal His tag (human, UniProt P12318 34-217); experiment: SPR Biacore, amount bound per captured antibody
T2 sequence (looked up): T1 sequence (looked up) with R134H

[4] = target: T3, human FcγRIIb extracellular domain with C-terminal His tag (human, UniProt P31994 43-217); experiment: SPR Biacore, amount bound per captured antibody
T3 sequence (looked up): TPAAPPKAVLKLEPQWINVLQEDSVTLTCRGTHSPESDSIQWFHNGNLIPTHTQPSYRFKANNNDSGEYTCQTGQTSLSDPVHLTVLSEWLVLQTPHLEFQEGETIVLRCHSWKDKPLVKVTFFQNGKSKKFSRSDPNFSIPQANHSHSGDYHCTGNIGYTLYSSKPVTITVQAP

[5] = target: human FcγRIIIa type V extracellular domain with C-terminal His tag (human, UniProt P08637 17-208); experiment: SPR Biacore, amount bound per captured antibody
[6] = target: T4, biotinylated GPC3 peptide (human, biotin on the C-terminal Lys); experiment: Biacore T200 SPR, peptide on Sensor chip SA
T4 peptide: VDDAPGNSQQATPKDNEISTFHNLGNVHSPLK

Sequence of human FcγRIIIa type V extracellular domain with C-terminal His tag (P08637 17-208 F176V): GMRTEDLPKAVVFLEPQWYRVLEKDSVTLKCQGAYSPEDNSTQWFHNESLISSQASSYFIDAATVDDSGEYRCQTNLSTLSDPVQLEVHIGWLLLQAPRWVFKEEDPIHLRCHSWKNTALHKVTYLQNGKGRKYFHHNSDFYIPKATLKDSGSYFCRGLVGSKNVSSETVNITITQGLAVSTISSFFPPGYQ
Sequence of human FcγRIa extracellular domain with C-terminal His tag (P12314 16-292): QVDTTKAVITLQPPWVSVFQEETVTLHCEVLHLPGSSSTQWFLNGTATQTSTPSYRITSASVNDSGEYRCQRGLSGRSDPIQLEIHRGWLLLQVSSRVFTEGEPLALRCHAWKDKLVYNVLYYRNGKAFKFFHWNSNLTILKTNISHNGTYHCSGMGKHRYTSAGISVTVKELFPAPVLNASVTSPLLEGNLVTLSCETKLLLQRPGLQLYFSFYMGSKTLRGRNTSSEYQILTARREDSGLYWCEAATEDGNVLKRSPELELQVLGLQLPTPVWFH

| Binder | relative binding activity [1] | relative binding activity [2] | relative binding activity [3] | relative binding activity [4] | relative binding activity [5] | binding result [6] |
| --- | --- | --- | --- | --- | --- | --- |
| B1 | 112 % of IL6R-BF648/IL6R-L | 172 % of IL6R-BF648/IL6R-L | 116 % of IL6R-BF648/IL6R-L | 144 % of IL6R-BF648/IL6R-L | 103 % of IL6R-BF648/IL6R-L | – |
| B2 | – | – | – | – | – | binds |
